In the DeepSol protein solubility set:

Test: soluble on expression in E. coli; label from the status in PepcDB or PDB records

Soluble on expression in E. coli, not soluble:
MGSDKIHHHHHHMLVVGASGSGKSTFANCINGLIPFKTKGNITGELYINNQDATVSCLHDRSNVVGTVLQDTDGQFIGLTAAEDMAFLLENNCVEQDDMKKNVSYWAEKVGMIEHLNHRPQDLSGGQKQRVSLGGILIHRTPILILDEPLANLDPATGHETLRLLNNIHEETKSTMIIVEHRLEESLDDTFDRVLLFKDGKIIANTTPSDLLKSSKLKEAGIREPLYCTALKYAEVDVESIDNLANLRDVCMSEHVKFKVKKWIDETSANNDNKYKSEPLLELNEVCVQYSDYSNSVLNNVQLNVYRREMLSIVGHNGAGKSTLAKAICGFLDITGNIQFCNRGFNQLSISERSEFVGYVMQNPNHMISEKMIYDEVALGLRARGMKESDIKIRVENVLKICGLYAFRNWPIAALSYGQKKRVTIASVLVLNPEIIILDEPTAGQDFYHYNEIMSFLIELNRQGKTIIMITHDMHLLSEYSSRTVVLSKGQVVADTTPVLILNDKKICEIASLRQTSLFEMAEYIGISEPQKLVQLFINHDRKVRRQ
MGSDKIHHHHHHMMDMTTRPTLQHFLSDTKHGPYVSLYMSWPENTSVEALRLRFKNMVKHTKSVMTETYPETDFSAYAAELEPYEQDPTFWQTCETNGFGMLTNGAQTYVTPMYEAVDEVAMVTDMPQILPLMLDEATATDFDILALNADSIQMYHNHGHQVRPISLPDDAPQTLKGTLGTEIRGGETNSVSQGGGRVTHHGHNEKSAEKASDQRRFYQAVDQYVLANHSNPHKMPLVLMGLAENVAVFREISKNHHLLPKLAVVKSPANLDFVELDDLLTPVRETLRDRRRQNFAEIIENARGNDSYTDHLEEVVQAAVAGRIAILFVQAGARIHARLEGTQIERDSINAQHANLLNDLADIVLSHGGQVELLTEAYLPVEVGAMVRYA
MGSDKIHHHHHHMMEKVTQMIAMLIKAWKKESVSQIDTPPVPATPEPKQQSPNNSACLTERVNTFLQTHYDFRYNRLTEETEFRPLSGAKTEFRPIGKRELNTLCMEAHAEGISCWDKDVSRYIYSTQIGEYHPFRLYMDELPPWDGIDRLTPLARRVSALPLWVKGFHTWMLGLAAQWEGKTGVHANSLAPILISAEQGRMKSTFCKSLMPKVLQRYYMDNLKLTSEGQAERLLSEMGLINLDEFDKYAESKMPLLKNLMQMSSLHVCKAYQRNFRDLPRIASFIGTSNRSDLMSDPTGSRRFFCVEVEKPINCEGIEHEQIFAQLKAELADGCPYWFDKETEREIQQNNAPFYRTCPAEEVFLSCFRTSASAEEKYLRLSAADIYKELKKRNAAALRGFNPNHFAQVLIKMGVERKHTEYGNVYLVVRR
MGSDKIHHHHHHMMEMVNNSFRHGILFQEGKMEEARFIERPNRFTVRCALGSEILDAYLPNPGRLWELLLPDSVLYVVRRDVGQDRKLRGVVVAVEREGRPVMLHTLACNDIVADLLRQKRLPGFEGMNILQREIARGRSRFDFLLEQNGAPRLLEVKSCTLFGRCIAMFPDAVTLRGRRHLLELAELSRQGTPAHVLFLVHWPHADFFLPDYHTDFDFASTFLAVRDAVRFSALAVDWQPDMTPGAEIRELYIPWELLEREVQDSGCYLLVLHLPRNENVIPGGSTLLSLRKGYYVTVVSIRSGLTRHLQKSSRRRPGSENSRKSTVPDNLKAAADKILAIPIRTTEPLEAELNDALSRIADWSVPGFEARGDAGLAPVFGMAGPPLQRRAFVELLLDFRINRLEKFLARGAGSSAGPPVGNPSLEKIQ
MGSDKIHHHHHHMMFEFNFARAMASLREEYAKDAKINIQHVWQNETAAVIAKALATEVSFDNAMFVENKPMRISDQQIRQLPVEAQKDLQQKILQNAANGIGFLYGSHLVGGLDGKPSPELLTSLHRFINSPDMFKFIQSITGIEGICYASLQASRYIQGNFLTRHNDVVESEGRKVAFVFGFTPEWHPDWGGLLQFYTPKGVLTDTWVPTFNNLALFDVHHPHSVSFVAPFAKRPRFSVTGWFRTIAPSK
MGSDKIHHHHHHMMGLPTLEQMQFQHAAAQLNALHAELIDDDRLEEWPDLFEEKCQYSVISAENHNRSLNLAAVFCDSRGMLVDRIVSLRRANIFPAHSYRHILGPTRVKSTSGQIVTTQTNYVVLMTRNDGQTSIYNSGKYVDQIDVSGAAPRFLSKTAIFDTHLIDTMMVRPI
MGSDKIHHHHHHMMIHGFQSSHQDFSFGPWKLTASKTHIMKSADVEKLADELHMPSLPEMMFGDNVLRIQHGSGFGIEFNATDALRCVNNYQGMLKVACAEEWQESRTEGEHSKEVIKPYDWTYTTDYKGTLLGESLKLKVVPTTDHIDTEKLKAREQIKFFEEVLLFEDELHDHGVSSLSVKIRVMPSSFFLLLRFFLRIDGVLIRMNDTRLYHEADKTYMLREYTSRESKIANLMHVPPSLFTEPNEISQYLPIKEAVCEKLVFPERIDPNPVDSQSTPSE
MGSDKIHHHHHHMMKHRHPQLRFLGATDSVTGSRYLVEAAGKRILVDCGLFQGYKVLRDRNRIPFPVRPDSIDAILLTHAHLDHTGYVPALVRDGFNGPVYATEGTTELCTLLLPDSGHLQEEEAKYAYEHGSSRHSPPVPLYTAADAVRSLDSFREHGFDTPLELGGGIAATFLPAGHILGAAQIRLAVGQHSVHFTGDLGRTDDPLMFPPRGLGAADILVTESTYGNRKHSSLDPELQLGEIITRVAKKNGVIMIAAFAVGRAETLMLHLSRLRSKNAIPDIPVYLNSPMAIDASGMYQRHPDEHRLKQPEYEDMYKVAKMTRTVDDSKLLNLRGGPMVIISASGMLTGGRILHHIAEYGPDPKNAIILSGYQAGGTRGAALAAGVRQLRIYGEDVRIRAEVIQMESLSAHADSDGLIEWMRAAAREPRMTYITHGEPEASDALRIRIKRELGWRVRVPEYLEGISLEDPT
MGSDKIHHHHHHMMKRFWFFLESYVFVWTNHEAVLLYDSLSGKGVTWKLTDPVRTIVMELMKKENLYCMELTEDDLNVPEVTEFVSEIRRNFIGDLYSQEEFRQKPLVIVPEVSVNENLENDVETMNNLELFGQKIVNNLRVVTMRLTGECSINCRYCQTVDKQIVWCRKQDNRLSYNEICRLLEQLKHTPVTLINFVGGNVLSYPFLDELLNELKKHSFGKCFYLYYKQSVDYEQIRAKLLNDPSVSIKFLIDYPVNEYAISACVALPNERVEYCFAVTSEEEFQEVSRIIDVYKLKANIYPFYTIDNLDFFEKYVFQTLEDVMALCRTKKDIFAHQLVNTHFFGTLYIDCDGKVYPNFNSKSIGTIDGYVKDWVFQEMKQGKMWHWTRDSLPACKECLYKYLCPSPSNYELVIGKPNLCHVKPWKC
MGSDKIHHHHHHMMKSVLADAVFGGALMIEFYASEALICPRRVWFRLKGIPEKWPEVAKPRLEKGMKIHEVLGKVLKDRFDVELEKSVIIRFPKLGMEIHGKIDVYKEFPIEIKGKSYIPSSPIDYHLAQLNLYLRGVNAEYGYLYYVKLTDDPWRAISDIVFDSFPLIKGNGLKIFEVPYDEVLFKETVKYFYEIKLYLENDELPPAWKGPHCKFCPYNYICLSGEEF
MGSDKIHHHHHHMMPYITDIAALEHVGVAAAWTEKVPAFRVLREKRMLDFRAPITVITGENGVGKSTLLEAIAINAGFDTAGGEHTGKFKPSDNPLQTVAKAHKGKEPMRGYFLRAETHFNVASGYRDEAPGWVNLHHMSHGESVMHIVQNAFVGKGLYLMDEPEAGLSFIRQMAILAELNFLAESGAQIIIVTHSPVLMAIPGAEIWEFSASGELHRGFDFEVTTAFRALRDFFEDPEEIAEYMMDVMMDNKGES
MGSDKIHHHHHHMMSYVRMTLYHGTDRKSAEKIMESKEILPSQGDNHWLGDGIYFYEEEFHAFKWIWYKEKNRNRLLKNFAIIKAEVICEESRIFDLTKIEHKLLFDMMYKLINTTKLRLDKLRGDMCAEGVVINYMFKNKELGYNKRFDIVRALFPIPVKKYQKIENREKNKKYKERTHRLTFMPEIQVCVKNPSVIKKLEWYDLEKTIDKFLIYTEIYKEDLGI
MGSDKIHHHHHHMMTSSEIKRIATYVEKGGVGKTTSAAHIAVAAHNRGHEVLLVDLAGTQNDLATHFGLSIVDEEATDDGVSIDAPISAVFGDDWAFLRDNIDDLLDRMTFPTDEGPDLIPADPGLGGADNNLANVPLEERYQKLDGFVEDLVADKYDLVIFDLPGKEDNIALNGLFAARNVVAPLKPGAFERDQLQKLDATLEEISADLDVDLGLALIIPTIISSQETLSESFVEYVTEEYPEIVGEPVTKTADIGNNQNAGRTLFAVPDDELYATGKRAREAYSANTEQLLSRLTDR
MGSDKIHHHHHHMMYPMPSWVYDSVVYQIFPDRFFIGKGKTVEDKKDLYLKRGGVIEKWGVPPRKLPGAQHVKIFYGGDLWGIAEKVDYFEELGINVLYLTPIFLSDTNHKYDTIDYFRVDPQFGGKRAFLHLLRVLHERSMKLILDGVFNHVGSQHPWFKKAKKNDPEYVNRFFLYKDRHRSWFDVGSLPELNVEVEEVKEYILKVVEHYLKLGIDGWRLDCGHDLGPTVNLWINMKVKEFSAEKYLVSEIWTYPAGWDMVDGLMNYNFRNLVLSYVNGETDSIGFHLERAYRETKNIFGCWNMLDSHDTPRLATMVPDRDLRKLAVVLQFTYPGVPLVYYGTEIGLTGGEDPECRATMEWNREKWDVDLFEFYKKMIRLRRTDPGLRFGEFVLLNDSPLAFLRKAPHPLQNTIVVVNPGEEKVLVLSIPDGKIMNTTPLVDVFSGERFHVDGGVVKLPLLARSFRILKPEDLRVGKYRLYKRV
MGSDKIHHHHHHMNAERQPSCCKVRLLLCDKSYPSHQSPIYTPTPPPWPLLALPGGVIMRTYLSSVAAIMSRSPDPAPRSSAPGRRASSSTRPPLARIGEVAYLKVVAVNTTGAFLDWGQPKDVLLPFAEQRFRPEVGKRVLVMLYEDAQGRPVASMRLDRFLADEATDLKAGDQVALVVAERTDLGFKAVVDHRYWGLLYADDIVHPPRRGQRLTGYIKRVREDGRLDLAMLPPGEAGLDVVGDKVLALLRCHGGFVALGDKTPAAEIKARVGVSKSAFKQAVGRLYKKRLITIEAEGIRLTREAIDDASSD
MGSDKIHHHHHHMNAQIQIIKTAQGHMALCQDTPKDIAPAWFAVDFWRAKDAVVGSSKGRYTTWFVAFEHSHWVLRHYWRGGLMEKFSKDAYVYTGLENTRAMAELRLLNILYHEDFAVPKPIAANIVRDGLFYRADIIIERVEGAEDLVAKLSKGLMNTEQWQALGATIAQFHQRGVYHADLNAKNILFQPAQTAPITPERFYLIDFDRGELKTPSPQWQQSNLDRLLRSFNKEQGKLPSLAFTADNWSSLMMGYQAAMQSA
MGSDKIHHHHHHMNDAAPTCTGGCTLNVLHTTTYHYSQPVEHAQQRAVATPPDLPWQSVTAHDTRIEPVPTHQHVRTDAFGNRVLHFMLDVPHTQMQLTCASTVVLTPRWQTLDPSASAPWETVAQSLRFHAAQPFEPATQFAFASPNIALHPSLRDYALPSFGAGVPVVAGAMDLMRRIHADFTYHSESTEVHTPAMQAFAQRSGVCQDFAQVMIGCLRSVGVAARYVSGYLCTEPPPGEERLVGADASHAWVSVYCPVAGWVDLDPTNNVLADTRHVTLAWGRDYSDVPLLHGVIVGGGAHGVDVGVTVVPVD
MGSDKIHHHHHHMNEDYQKTIEFHGHECPGVTIGYRVSKYVLDHYERSEDEQLVAIVENNSCSIDGIQQMLGCTFGKGNLKFKDNGKHVYTFYSRGNDKALRIYLKYNLAEKVGNFNKKFNEGTLTAEDEKQMFERRKEAIKHLMEAPEEELFDVQWVEIEEPKKARLYPSLTCENCGETFMEIKGRTIDGKIVCKECFQKLVH
